Data taken from the Human Domainome abundance scans (Beltran et al. 2025).
± gives the uncertainty stated by the source.

B1: Cyclin-F, residues 28 to 80; numbered along this chain, P41002 (parent)
chain: RNLTILSLPEDVLFHILKWLSVEDILAVRAVHSQLKDLVDNHASVWACASFQE
B2: Max-interacting protein 1, residues 70 to 120; numbered along this chain, P50539 (parent)
chain: STHNELEKNRRAHLRLCLERLKVLIPLGPDCTRHTTLGLLNKAKAHIKKLE

Variants of: B1
Assay: abundance fitness (aPCA) (normalised: wild type 0, dead -1); higher = more abundant; growth selection in yeast, the domain comes from the species named
Settings: Homo sapiens
With RNLTILSLPEDVLFHILKWLSVEDILAVRAVHSQLKDLVDNHASVWACASFYE [Q52Y] the abundance fitness was -0.382 ± 0.24. Work on RNLTILSLPEDVLFHILKWLSVEDILAVRAVHSQLKDLVDNHASVWACASFQA [E53A] yielded an abundance fitness of -0.151 ± 0.17. For RNLTILSLPEDVLFHILKWLSVEDILAVRAVHSQLKDLVDNHASVWACASFQC [E53C], the abundance fitness was -0.527 ± 0.41. In the case of RNLTILSLPEDVLFHILKWLSVEDILAVRAVHSQLKDLVDNHASVWACASFQD [E53D], the abundance fitness is reported as -0.178 ± 0.33. Variant RNLTILSLPEDVLFHILKWLSVEDILAVRAVHSQLKDLVDNHASVWACASFQF [E53F] has an abundance fitness of -0.582 ± 0.42. In the case of RNLTILSLPEDVLFHILKWLSVEDILAVRAVHSQLKDLVDNHASVWACASFQG [E53G], the abundance fitness is reported as -0.069 ± 0.13. In the case of RNLTILSLPEDVLFHILKWLSVEDILAVRAVHSQLKDLVDNHASVWACASFQH [E53H], the abundance fitness is reported as -0.878 ± 0.36. Variant RNLTILSLPEDVLFHILKWLSVEDILAVRAVHSQLKDLVDNHASVWACASFQI [E53I] has an abundance fitness of -0.533 ± 0.49. Variant RNLTILSLPEDVLFHILKWLSVEDILAVRAVHSQLKDLVDNHASVWACASFQK [E53K] has an abundance fitness of 0.081 ± 0.26. Work on RNLTILSLPEDVLFHILKWLSVEDILAVRAVHSQLKDLVDNHASVWACASFQL [E53L] yielded an abundance fitness of -0.543 ± 0.42. RNLTILSLPEDVLFHILKWLSVEDILAVRAVHSQLKDLVDNHASVWACASFQM [E53M] gave an abundance fitness of -0.39 ± 0.34. With RNLTILSLPEDVLFHILKWLSVEDILAVRAVHSQLKDLVDNHASVWACASFQP [E53P] the abundance fitness was -0.375 ± 0.34. For RNLTILSLPEDVLFHILKWLSVEDILAVRAVHSQLKDLVDNHASVWACASFQQ [E53Q], the abundance fitness was -0.051 ± 0.26. With RNLTILSLPEDVLFHILKWLSVEDILAVRAVHSQLKDLVDNHASVWACASFQR [E53R] the abundance fitness was -0.068 ± 0.15. In the case of RNLTILSLPEDVLFHILKWLSVEDILAVRAVHSQLKDLVDNHASVWACASFQS [E53S], the abundance fitness is reported as -0.467 ± 0.22. RNLTILSLPEDVLFHILKWLSVEDILAVRAVHSQLKDLVDNHASVWACASFQT [E53T] gave an abundance fitness of -0.349 ± 0.25. For RNLTILSLPEDVLFHILKWLSVEDILAVRAVHSQLKDLVDNHASVWACASFQV [E53V], the abundance fitness was -0.538 ± 0.19.

Variants of: B2
Assay: as above
Settings: Homo sapiens
ATHNELEKNRRAHLRLCLERLKVLIPLGPDCTRHTTLGLLNKAKAHIKKLE [S1A] gave an abundance fitness of -0.6 ± 0.17. CTHNELEKNRRAHLRLCLERLKVLIPLGPDCTRHTTLGLLNKAKAHIKKLE [S1C] gave an abundance fitness of -0.216 ± 0.17. In the case of DTHNELEKNRRAHLRLCLERLKVLIPLGPDCTRHTTLGLLNKAKAHIKKLE [S1D], the abundance fitness is reported as -0.475 ± 0.35. Work on ETHNELEKNRRAHLRLCLERLKVLIPLGPDCTRHTTLGLLNKAKAHIKKLE [S1E] yielded an abundance fitness of -0.48 ± 0.49. With FTHNELEKNRRAHLRLCLERLKVLIPLGPDCTRHTTLGLLNKAKAHIKKLE [S1F] the abundance fitness was -0.095 ± 0.18. In the case of GTHNELEKNRRAHLRLCLERLKVLIPLGPDCTRHTTLGLLNKAKAHIKKLE [S1G], the abundance fitness is reported as -0.21 ± 0.16. Variant HTHNELEKNRRAHLRLCLERLKVLIPLGPDCTRHTTLGLLNKAKAHIKKLE [S1H] has an abundance fitness of -0.285 ± 0.31. Variant LTHNELEKNRRAHLRLCLERLKVLIPLGPDCTRHTTLGLLNKAKAHIKKLE [S1L] has an abundance fitness of -0.59 ± 0.15. With MTHNELEKNRRAHLRLCLERLKVLIPLGPDCTRHTTLGLLNKAKAHIKKLE [S1M] the abundance fitness was -0.797 ± 0.38. With NTHNELEKNRRAHLRLCLERLKVLIPLGPDCTRHTTLGLLNKAKAHIKKLE [S1N] the abundance fitness was -0.158 ± 0.3. In the case of RTHNELEKNRRAHLRLCLERLKVLIPLGPDCTRHTTLGLLNKAKAHIKKLE [S1R], the abundance fitness is reported as -0.573 ± 0.26. For TTHNELEKNRRAHLRLCLERLKVLIPLGPDCTRHTTLGLLNKAKAHIKKLE [S1T], the abundance fitness was -0.577 ± 0.34. WTHNELEKNRRAHLRLCLERLKVLIPLGPDCTRHTTLGLLNKAKAHIKKLE [S1W] showed an abundance fitness of -0.916 ± 0.18. With YTHNELEKNRRAHLRLCLERLKVLIPLGPDCTRHTTLGLLNKAKAHIKKLE [S1Y] the abundance fitness was -0.444 ± 0.31. For SAHNELEKNRRAHLRLCLERLKVLIPLGPDCTRHTTLGLLNKAKAHIKKLE [T2A], the abundance fitness was -0.303 ± 0.086. Variant SCHNELEKNRRAHLRLCLERLKVLIPLGPDCTRHTTLGLLNKAKAHIKKLE [T2C] has an abundance fitness of -0.415 ± 0.12. For SDHNELEKNRRAHLRLCLERLKVLIPLGPDCTRHTTLGLLNKAKAHIKKLE [T2D], the abundance fitness was -0.209 ± 0.085. Work on SFHNELEKNRRAHLRLCLERLKVLIPLGPDCTRHTTLGLLNKAKAHIKKLE [T2F] yielded an abundance fitness of -0.586 ± 0.097. Variant SGHNELEKNRRAHLRLCLERLKVLIPLGPDCTRHTTLGLLNKAKAHIKKLE [T2G] has an abundance fitness of -0.69 ± 0.12. In the case of SHHNELEKNRRAHLRLCLERLKVLIPLGPDCTRHTTLGLLNKAKAHIKKLE [T2H], the abundance fitness is reported as -0.1 ± 0.081. Variant SIHNELEKNRRAHLRLCLERLKVLIPLGPDCTRHTTLGLLNKAKAHIKKLE [T2I] has an abundance fitness of -0.24 ± 0.079. For SKHNELEKNRRAHLRLCLERLKVLIPLGPDCTRHTTLGLLNKAKAHIKKLE [T2K], the abundance fitness was 0.002 ± 0.086. Work on SLHNELEKNRRAHLRLCLERLKVLIPLGPDCTRHTTLGLLNKAKAHIKKLE [T2L] yielded an abundance fitness of -0.519 ± 0.075. SMHNELEKNRRAHLRLCLERLKVLIPLGPDCTRHTTLGLLNKAKAHIKKLE [T2M] gave an abundance fitness of -0.63 ± 0.098. SNHNELEKNRRAHLRLCLERLKVLIPLGPDCTRHTTLGLLNKAKAHIKKLE [T2N] gave an abundance fitness of 0.128 ± 0.075. Variant SPHNELEKNRRAHLRLCLERLKVLIPLGPDCTRHTTLGLLNKAKAHIKKLE [T2P] has an abundance fitness of -0.35 ± 0.078. With SQHNELEKNRRAHLRLCLERLKVLIPLGPDCTRHTTLGLLNKAKAHIKKLE [T2Q] the abundance fitness was 0.161 ± 0.11. In the case of SRHNELEKNRRAHLRLCLERLKVLIPLGPDCTRHTTLGLLNKAKAHIKKLE [T2R], the abundance fitness is reported as -0.631 ± 0.1. Variant SSHNELEKNRRAHLRLCLERLKVLIPLGPDCTRHTTLGLLNKAKAHIKKLE [T2S] has an abundance fitness of -0.414 ± 0.074. In the case of SVHNELEKNRRAHLRLCLERLKVLIPLGPDCTRHTTLGLLNKAKAHIKKLE [T2V], the abundance fitness is reported as -0.663 ± 0.088. Variant SWHNELEKNRRAHLRLCLERLKVLIPLGPDCTRHTTLGLLNKAKAHIKKLE [T2W] has an abundance fitness of -0.836 ± 0.19. SYHNELEKNRRAHLRLCLERLKVLIPLGPDCTRHTTLGLLNKAKAHIKKLE [T2Y] gave an abundance fitness of -0.088 ± 0.095. In the case of STANELEKNRRAHLRLCLERLKVLIPLGPDCTRHTTLGLLNKAKAHIKKLE [H3A], the abundance fitness is reported as -0.099 ± 0.1. STCNELEKNRRAHLRLCLERLKVLIPLGPDCTRHTTLGLLNKAKAHIKKLE [H3C] gave an abundance fitness of 0.021 ± 0.14.
